The target in the data set is GST-Vif wild type (HIV-1, UniProt P69723 1-192). The experiment in a line: EMSA. (A gel shift assay detects complexes by their altered migration in electrophoresis.)

The values that follow come from publication PMC2699511.

Sequence of GST-Vif wild type (P69723 whole entry): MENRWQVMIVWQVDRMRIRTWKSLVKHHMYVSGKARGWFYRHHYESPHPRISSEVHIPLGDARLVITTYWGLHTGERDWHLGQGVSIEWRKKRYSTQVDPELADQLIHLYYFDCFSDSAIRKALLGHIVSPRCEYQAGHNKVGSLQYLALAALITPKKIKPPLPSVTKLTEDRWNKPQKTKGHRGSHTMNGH

Take AAAAAAAAAAAAAAAAAAAAAAAAAAAAAAAAAAAAAAAA (ssRNA) [poly(rA40)]: the binding result is reported as “binds”.
